Data reported in patent US11673947B2, “Target tissue-specific antigen-binding molecule” (Chugai Seiyaku Kabushiki Kaisha, priority 2012, dated 2023).

Tests used:
hIL-6R = molecular target: T1, hIL-6R (Homo sapiens, UniProt P08887); assay: IgG ELISA, binding to hIL-6R in mouse serum with or without kynurenine; settings: Table 20: condition 1 (mouse serum without kynurenine) vs condition 2 (mouse serum in the presence of kynurenine)
T1 sequence (P08887 20-355 limits assumed): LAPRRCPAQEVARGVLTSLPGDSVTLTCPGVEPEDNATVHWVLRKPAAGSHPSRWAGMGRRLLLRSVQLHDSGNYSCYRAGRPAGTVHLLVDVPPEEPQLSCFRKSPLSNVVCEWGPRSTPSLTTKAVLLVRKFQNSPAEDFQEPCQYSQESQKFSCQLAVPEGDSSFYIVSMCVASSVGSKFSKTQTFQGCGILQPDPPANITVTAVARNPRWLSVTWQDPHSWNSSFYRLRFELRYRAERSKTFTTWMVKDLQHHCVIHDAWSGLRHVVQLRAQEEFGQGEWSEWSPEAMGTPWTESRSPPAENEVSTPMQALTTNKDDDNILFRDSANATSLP
Method: As described in Example 14, antibody 6RNMSC1-2_F02 which has antigen-binding activity in the presence of kynurenine, and the known anti-hIL-6R antibody MRA were subjected to ELISA under the two conditions described in Table 20. The antigen used was biotin-labeled hIL-6R.
First, a StreptaWell 96 microtiter plate (Roche) was coated at room temperature for one hour or more with 100 μl of PBS containing the biotin-labeled antigen. After washing with Wash buffer to remove unbound antigen from the plate, each well was blocked for one hour or more with 250 μl of Blocking Buffer. After Blocking Buffer was removed from each well, each of the purified IgGs was prepared to 2.5 μg/ml under condition 2 shown in Table 20, and aliquoted at 100 μl into the plate. The plate was allowed to stand at room temperature for one hour to allow binding of each IgG to the antigen in each well. After washing with Wash Buffer containing 100 μM kynurenine, an HRP-conjugated anti-human IgG antibody (BIOSOURCE) diluted with Sample Buffer containing kynurenine was added to each well. The plate was incubated for one hour. Following wash with Wash Buffer containing kynurenine, the TMB single solution (ZYMED) was added to each well. The chromogenic reaction in the solution of each well was terminated by adding sulfuric acid. Then, the developed color was assessed by measuring absorbance at 450 nm.

[1] = molecular target: T2, human IL6 receptor (IL-6R) (Homo sapiens, UniProt P08887); assay: Biacore T200, interaction of 6RNMSC1-2_F02 with human IL6 receptor with or without kynurenine; type: binding; settings: 25° C.
T2 sequence (P08887 20-355 limits assumed): T1 sequence (P08887 20-355 limits assumed)
Excerpt: Biacore T200 (GE Healthcare) was used to analyze the interaction of 6RNMSC1-2_F02 with human IL6 receptor (IL-6R) in antigen-antibody reaction. Sensor chip CM5 (GE Healthcare) was immobilized with an appropriate amount of protein A (Invitrogen) by amine coupling. The antibody of interest was captured by the chip to allow interaction with IL-6R as an antigen. The running buffer used was 20 mmol/1 ACES, 150 mmol/l NaCl, 0.05% (w/v) Tween20, pH 7.4. The interaction with the antigen IL-6R was assayed at 25° C. The buffers used to dilute IL-6R were the running buffer itself, and a buffer prepared by adding 100 μmol/l kynurenine to the running buffer, and in addition a buffer prepared as a control by adding 10 mmol/l ATP to the running buffer.
A diluted IL-6R solution and a running buffer as a blank were injected at a flow rate of […] for one minute to allow interaction of IL-6R with 6RNMSC1-2_F02 captured on the sensor chip. Then, the running buffer was injected at a flow rate of 10 μl/min for one minute. After observation of IL-6R dissociation from the antibody, 10 mmol/l glycine-HCl (pH 1.5) was injected at a flow rate of 30 μl/min for 30 seconds to regenerate the sensor chip. The dissociation constant KD (M) of 6RNMSC1-2_F02 was calculated for IL-6R based on the association rate constant ka (1/Ms) and dissociation rate constant kd (1/s), both of which are kinetic parameters calculated from the sensorgram obtained by the measurement. Each parameter was calculated using the Biacore T200 Evaluation Software (GE Healthcare).
The running buffers used were 20 mmol/1 ACES, 150 mmol/l NaCl, 0.05% (w/v) Tween20, pH 7.4, and 20 mmol/1 ACES, 150 mmol/l NaCl, 0.05% (w/v) Tween20, pH 7.4, 100 μmol/l kynurenine, and assay was carried out at 25° C. IL-6R was immobilized onto Sensor chip CM5 by amine coupling; and 6RNMSC1-2_F02 was diluted to 5 μg/ml with 20 mmol/1 ACES, 150 mmol/l NaCl, 0.05% (w/v) Tween20, pH 7.4, containing 100 μmol/l kynurenine, and it was interacted as an analyte for 180 seconds. Then, the dissociation of […] was monitored under each running buffer condition. In order to compare the degree of dissociation between the respective running buffer conditions, the values were normalized by taking as 100 the amount of 6RNMSC1-2_F02 bound to IL-6R in the presence of 100 μmol/l kynurenine and compared.
Next, Biacore T200 (GE Healthcare) was used to assess the effect of kynurenine concentration on the antigen-antibody reaction between 6RNMSC1-2_F02 and IL-6R. The running buffer used was 20 mmol/1 ACES, 150 mmol/l NaCl, 0.05% (w/v) Tween20, pH 7.4. The antigen-antibody reaction between 6RNMSC1-2_F02 and human IL-6R was assayed at 25° C. IL-6R was immobilized onto sensor chip CM5 by amine coupling; and 6RNMSC1-2_F02 was diluted to 1 μg/ml with 20 mmol/l ACES, 150 mmol/l NaCl, 0.05% (w/v) Tween20, pH 7.4 containing various concentrations of kynurenine, and it was allowed to interact as an analyte for 180 seconds to observe changes in the amount of binding.

B1: 6RNMSC1-2_F02: antibody that binds to hIL-6R in the presence of kynurenine; SEQ ID NOs: 86 and 87 (antibody, listed as Homo sapiens, V domains shown)
VH: QVQLVQSGAEVKKPGSSVKVSCKASGGTFSSYAISWVRQAPGQGLEWMGGIIPIFGTANYAQKFQGRVTITADESTSTAYMELSSLRSEDTAVYYCARDAPVVARPRGAFDIWGQGTMVTVSS
VL: DIVMTQTPLSSPVTLGQPASISCRSSQSLVHSDGNTYLSWLQQRPGQPPRLLIHEISNRFSGVPDRFSGSGAGTNFTLKISRVEAEDVGVYYCMQATQFPRTFGQGTKVEIK
absorbance under condition 1 as compared to condition 2 (hIL-6R): markedly lower
IL-6R binding (sensorgram) ([1]; 1 μmol/l IL-6R, in the absence of kynurenine): not detectable
binding to IL-6R (sensorgram) ([1]; 1 μmol/l IL-6R, in the presence of 100 μmol/l kynurenine): binds to IL-6R
effect of kynurenine concentration on amount bound to IL-6R ([1]; IL-6R immobilized, antibody as analyte for 180 seconds): the higher the concentration of kynurenine serving as a switch, the greater the amount of 6RNMSC1-2_F02 bound to IL-6R
dissociation from IL-6R ([1]; bound with 100 μmol/l kynurenine, then buffer without kynurenine, IL-6R immobilized): rapidly dissociates from IL-6R in the absence of kynurenine
Kd ([1]; in the presence of 100 μmol/l kynurenine, read-out: dissociation constant KD): 1500 nM
